Laboratory results: patent US20150197796, “SSB METHOD” (OXFORD NANOPORE TECHNOLOGIES LIMITED, published 2015)

Target: EcoSSB-Q152del (C-terminal truncated SSB) (Escherichia coli, UniProt P0AGE0 SEQ:1-152)
Assay: EMSA; complex formation not impaired vs WT; 5% TBE gel
Details: tags: N-terminal His6-TEV site removed; chain copies: 4 inferred

B1: 70mer polyT (ssDNA)
DNA: TTTTTTTTTTTTTTTTTTTTTTTTTTTTTTTTTTTTTTTTTTTTTTTTTTTTTTTTTTTTTTTTTTTTTT
binding result: binds
